Article PMC8293591, “Vibrio vulnificus induces the death of a major bacterial species in the mouse gut via cyclo-Phe-Pro” (Microbiome, 2021)

Columns and labels:
[1] = molecular target: T1, ObgE (rObgE) (Phocaeicola vulgatus, UniProt A6L100); assay: isothermal titration calorimetry; format: binding
T1 construct: gene obg; 45 kDa; nucleotide-free (alkaline phosphatase, gel filtration)
T1 sequence (A6L100 1-394): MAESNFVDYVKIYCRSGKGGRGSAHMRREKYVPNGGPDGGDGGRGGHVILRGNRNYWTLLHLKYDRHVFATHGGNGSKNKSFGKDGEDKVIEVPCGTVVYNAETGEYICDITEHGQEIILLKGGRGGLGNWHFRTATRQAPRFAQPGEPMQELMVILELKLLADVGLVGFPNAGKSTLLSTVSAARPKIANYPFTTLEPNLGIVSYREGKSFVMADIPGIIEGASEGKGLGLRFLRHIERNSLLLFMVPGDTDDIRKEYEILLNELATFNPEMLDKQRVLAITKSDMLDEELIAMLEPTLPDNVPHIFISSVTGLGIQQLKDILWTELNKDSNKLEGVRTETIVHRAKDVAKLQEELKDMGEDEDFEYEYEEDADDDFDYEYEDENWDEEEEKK

[2] = molecular target: recombinant ObgE of Bacteroides vulgatus MGM001, nucleotide-free (Bacteroides vulgatus MGM001); assay: ITC; MicroCal iTC200; nucleotide-free rObgE (40 μM) titrated with 400 μM cyclic dipeptide at 25 °C in 20 mM HEPES (pH 7.5), 150 mM NaCl, 5 mM MgCl2, 1 mM β-mercaptoethanol; single binding site model

Compound	Kd [1] [nM]	Kd [2] [nM]	stoichiometry N [2]
O=C1N[C@@H](Cc2ccccc2)C(=O)N2CCC[C@@H]12 [cFP]	1800 ± 350	–	–
cyclo-(phenylalanine-proline) (peptide)	–	1800	0.78
